assay: yeast display, Sf9 membrane polyspecificity reagent, FACS + sequencing; frameworks hold sequencing errors
Summary of the method: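 Synthetic nanobody libraries on Saccharomyces cerevisiae BJ5465 were galactose-induced for 36–48 hours, stained 1 hour at 4 °C with 10% biotinylated, detergent-solubilized Sf9 membrane reagent and enriched on streptavidin microbeads. FACS then separated cells into low and high (top ~1%) gates by anti-HA (expression) and streptavidin (reagent binding) fluorescence. Genes were colony-PCR amplified, MiSeq 2 × 250 sequenced and CDR-length filtered. A clone's polyreactivity label is that of its gate of origin.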

| Sequence | polyreactivity (PSR sort gate) |
| --- | --- |
| QVHLVESGGGLVQAGGSLRLSCAASGSTFIYNTMGWYRQAPGKERELVATITDSSDSTNYADSVKGRFTITRDNAKNTVYLQMNSLKPDDTAVYYCAADGEVDIATYPSQITDYDYWGQGTQVTVSS | low polyreactivity |
| QVHLVESGGGLVQAGGSLRLSCAASGSTFPRYSMGWYRQAPGTERELVAAITQSGGRTYYADSVKGSFTISRDNAKNTVYLQMNSRKPEDTAVYYFAAEDGLRGNRLYYWGHGTQVTVSS | high polyreactivity |
| QVHLVESGGGLVQAGGSLRLSCAASGSTFPWYARGWYRKAPGKERELVAAISGSSSTTYYADSVKGRFTISRDNAMNTVYLQMNSLKPEDTAVYYCNAVTTSGSGYGYWGQGTQVTVSS | low polyreactivity |
| QVHLVESGGGLVQAGGSLRLSCAASGSTFRIYSMGWYRQAPGKERELVAGITGNGGSTRYADSVKGRFTISRDNAKNTVYLQMNSLKPEDTAVYYCAARWTRQRYRTSYYSWGQGTQVTVSS | high polyreactivity |
| QVHLVESGGGLVQAGGSLRLSCAASGSTFTDYTIGWYRQAPGKERELVARIRSRGARTYYADSVKGRFTISRDNAKNTVYLQMNSLKPEDTAVNSCNKRWGCLRASPAYDYWGQGTQVTVSS | high polyreactivity |
| QVHLVESGGGLVQAGGSLRLSCAASGSTFVHYAMGWYRQAPGKERELVADITTGDITNYADSVKGRFTISRDNAKNTVYLQMNSLKQEDTAVYSCNARTRYITSLHQYSLDYWGQGSQVTVSS | low polyreactivity |
| QVHLVESGGGLVQAGGSLRLSCAASGSTFWGYTMGWYRQAPGKERELVAAISTIGGSTYYADSVKGRFTISRDNAKNTVYLQMNSLKTEDTAVYYCAAYKGKHYKEGYWGQGTQVTVSS | low polyreactivity |
| QVHLVESGGGLVQAGGSLRLSCAASGSTFYYYAMGWYRQAPGKERELVAVITSGGSTNYADSVKGRFTISRDYAKNSVYLQMNSLKPEDTAVYYCNVGPSTYYQYDYWGQGTQVTVSS | high polyreactivity |
| QVHLVESGGGLVQAGGSLRLSCAASGSTIDINAMGWYRQAPGKERELVAAISSGGITNYADSVKGRFTISRDNAKNTVYLQMNSLKPEDSAVYYCATQTYTFRWFGSPGWFDYWGQGTQVTVSS | low polyreactivity |
| QVHLVESGGGLVQAGGSLRLSCAASGSTIRAYAMGWNRQAHVKERELVAAISYSGDSTYYADSVKGRFTISRDNAKNTVYLQMNSLKPEDTAVYYCAADYSYRHYEYDYWGQGTQVSVSS | low polyreactivity |
| QVHLVESGGGLVQAGGSLRLSCAASGSTIRSYAMGWNRQAPGKERELVARIAYSSGGTYYADSVKGRFTISRDNAKNTVYLQMNSLKPEDTAVYYCAKPSPITSYPRFDYWGQGTQVTVSS | high polyreactivity |
| QVHLVESGGGLVQAGGSLRLSCAASGSTLFPYAMGWYRQAPGKERELVAAISSRGGRTYYADSVKGRFTISRDNAKNTVYLQMNSLKPEVTAVYYCAAGDDYWGQGTEVTVSS | high polyreactivity |
| QVHLVESGGGLVQAGGSLRLSCAASGSTSNYYVKVWYGQAPGKERELVASISSGGSTNYADSVKGRFSISRDNAKNSVYLQKNSLKPEDTAVYYCARRRFTHRRYRFDFWGQGTQVTVSS | high polyreactivity |
| QVHLVESGGGLVQAGGSLRLSCAASGSTSRTYAMGWNRPQPGKERELVAAISSSGGRTTYADSVKGRFTFSRDNAKNTVSLQMNSLKPEDTAVYYCNARTYSYRGYNYWGQGTQVTVSS | high polyreactivity |
| QVHLVESGGGLVQAGGSLRLSCAATGLTFHKYAMGWYRQSPGKERELVAAISSSGGSTYYADSVKGRFTISRDNAKNTVYLQMNSLKPEDTAVYYCATRLPYYTHAGYNYWGQGTQVTVSS | high polyreactivity |
| QVHLVESGGGLVQAGGSLRLSCAPSGLTFPYNAMGWYRQAPGKESELVAAISRGGGTNYADSVKGRFTISRDNAKNTVYLQMNSLKPEDTAVYYCAAEYATWWGGYDYSGQGTQVTVSS | low polyreactivity |

| Sequence | polyreactivity (PSR sort gate) |
| --- | --- |
| QVHLVESGGGLVQAGGSLRLSCAPSGRTFFINAMGWYRQAPGKERELVAAIRVGAGSTYYADSVKGRFTISRDNAKNTVYLQMNSLKPEDTAVYYCAAKRVGSREYYWGQGTQVTVSS | high polyreactivity |
| QVHLVESGGGLVQAGGSLRLSCASTGRISTYYTMVWYRQAPGKERELVAAISWSGTSTYYADSVKGRFTISRDNAKNTVYLQMNSLKPEDTAVYYCNAYFRPRYGYWGQGTQVTVSS | high polyreactivity |
| QVHLVESGGGLVQAGGSLRLSCDASGSIFSVNVMGWYRQQPGKERELVAAITSGGSTHYADSVKGRFTISRDNAKNTVYLQMNSLKPEDTAVYDCAARVWYYDYWGQGTQVTVSS | high polyreactivity |
| QVHLVESGGGLVQAGGSLRLSCPASGIIFVPNAMGWYRQAPGKEREFVAAISRSGTSTYYADSVKGRFTISRDNAKNTVYLQMNSLKPEDTAVYYCAKSAYRSYSAFGYWGQGTQVTVSS | high polyreactivity |
| QVHLVESGGGLVQAGGSLRLSCPASGRIFYYYTMGCYRQAPGKERELVAAITSGGSTYYADSVKGRFTISRDNAKNTVYLQMYSLKQEDTAVYYCIAEFDEKYDYWGQGTQVTVSS | low polyreactivity |
| QVHLVESGGGLVQAGGSLRLSFAASGRTFSTNAMGWYRQAPGKERELVAAISSTGGRTYYADSVKGRFTISRDNAKNTVYLQMNSLKPEDTAVYYCNTKLKGKGEGFDYWGQGTQVTVSS | high polyreactivity |
| QVHLVESGGGLVQAGGSLRLSSAASGITFGWYAMGWYRQAPGKERELVAAIDRGGSTYYADSVKGRFTISRDNAKITVYLQMNSLKPEDTAVYYCAVELRLRYGYDYWGQGTEVTVSS | high polyreactivity |
| QVHLVESGGGLVQAGGSLRLSSAPSGLTLETNAMGWSRQAPGKERELVAGITYSGGTTYYADSVKGRFTISRDNAKNTVYLQMNSLKPEDTAVYYCAAHTSTSGHNFWGQGTQVTVSS | low polyreactivity |
| QVHLVESGGGLVQAGGSLRLSSDASGSTFHPYAMGLYRQAPGKERELVAAISWTGGRTYYADSVKGRFTISRDYAKNTVYLQMNRLKREDTAVYYCAARTYGKVGYWGQGTQVTVSS | high polyreactivity |
| QVHLVESGGGLVQAGGSLRLSSSASGIIFGRNTMGWYRQAPGKEREMVAAITSSGITYYADSVKGRFTISRDNAKNTVYFQMNSLKPEDTAVYYCYSDWTYADPNEYGYWGQGTQVTVSS | low polyreactivity |
| QVHLVESGGGLVQAGGSLRLTCAASGGIFHINAMGWYRQAPGKERELVAAITRTTITYADSVKGRFTISRDNAKYTVYLQMNRLKLEDSAVYYCAARDKRTPSGVEITGYDYWGQGSQVTVSS | low polyreactivity |
| QVHLVESGGGLVQAGGSLRLTCAASGSIFAYYTMGWYRQEPGKERELVAAISRTGTSTFYADSVKGRFTISRDNAKNTVDLQMNSLKPEDTSVYYCIAVAPGKYNHWGQGTQVTVSS | high polyreactivity |
| QVHLVESGGGLVQAGGSLRLTCAASGSIFPYNAMGWYRQSPGEFVAAISYSSGSTYYADSVQGRFTISRDNAKYTVYLQMNCVIPDVTAVYYCAAGSWYPPSYVWLGRYDYWGQGTQVTVSS | low polyreactivity |
| QVHLVESGGGLVQAGGSLRLTSAASGRIFGRNAMGWYRQAPGKEREFVAAISRSGASRYYADSVKGRFTISRDNAKNTVYLQMNRLKPEDTAVYYCARTTRQSSAYTYSDEYDYWGQGTQVTVSS | high polyreactivity |
| QVHLVESGGGLVQAGRSLRLICAASGSTFDYYAMGWYRQAPGKERELVAGIDSAGSTNYADSVKGRFTISRDNAKNTVYLQMNSLKTGRYRGLYCNVGKTITTYAFPTFDYWRQGTQVTVSS | low polyreactivity |
| QVHLVESGGGLVQAGRSLRLSCAASGITFVKYAMGCYIQAPGKEMELVATISNSGGSTYYSDSVKGRFTISRDNAKNSVYLQMNSLKPEETAVYYCNALYLVYCDDSSPSLVSEYGYWGQGTQVTVSS | low polyreactivity |
